From doi:10.1101/2020.08.19.257774 (bioRxiv, 2020)

Columns and labels:
[1] = molecular target: the molecule itself; assay: cryo-EM structure
[2] = molecular target: the molecule itself; assay: negative stain EM

Row | Protein | binding result [1] | binding result [2]
1 | A. thaliana Light-dependent Protochlorophyllide OxidoReductase isoform B (AtPORB) (enzyme) QTAATSSPTVTKSVDGKKTLRKGNVVVTGASSGLGLATAKALAETGKWNVIMACRDFLKAERAAKSVGMPKDSYTVMHLDLASLDSVRQFVDNFRRTETPLDVLVCNAAVYFPTAKEPTYSAEGFELSVATNHLGHFLLARLLLDDLKKSDYPSKRLIIVGSITGNTNTLAGNVPPKANLGDLRGLAGGLNGLNSSAMIDGGDFDGAKAYKDSKVCNMLTMQEFHRRFHEETGVTFASLYPGCIASTGLFREHIPLFRALFPPFQKYITKGYVSETESGKRLAQVVSDPSLTKSGVYWSWNNASASFENQLSEEASDVEKARKVWEISEKLVGLA | binds | 
2 | Synechocystis LPOR (enzyme, UniProt Q59987 1-322, looked up) MEQPMKPTVIITGASSGVGLYGAKALIDKGWHVIMACRNLDKTQKVADELGFPKDSYTIIKLDLGYLDSVRRFVAQFRELGRPLKALVCNAAVYFPLLDEPLWSADDYELSVATNHLGHFLLCNLLLEDLKACPDADKRLIILGTVTANSKELGGKIPIPAPPDLGNFEGFEAGFKKPIAMINNKKFKSGKAYKDSKLCNMLTTRELHRRFHQETGIVFNSLYPGCVADTPLFRNHYSLFRTIFPWFQKNVTKGYVSQELAGERVAMVVADDKFKDSGVHWSWGNRQQAGREAFVQELSEQGSDAQKAQRMWDLSEKLVGLV |  | binds
